Measurements: the domain aggregation screens of Martell et al. (2025)

Assay: soluble fraction after stress (log2 fold change); higher = more stays soluble; pooled small domains, quantitative proteomics
Conditions: stress: 50 degC
How it was run: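 Pooled custom libraries of small protein domains were measured in a high-throughput format, with quantitative proteomics as the read-out. Each library was stressed at 50°C. Aggregation propensity is given as the base-two logarithm of the fold change in how much of each protein stays soluble after the stress. Higher values mean a larger share of the protein remains in solution.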

Point of comparison: “HMDHAVINSEEVTIKDLSEKIGVSAAEIIKALFTEGIIKTINDKIEYEYAQYVAGMFGVELTLKL”, “soluble fraction (log2)” value 0.277. Against it:
- HMGAQKITIPDFSNQEATQVYAELKNMGLEYTESRMNHPSIASGYVIKTEPTKGSEVKAGTTVTVYVSLG — lower, -0.0535
- HMSKQQFLDELAARLREEGAELLVAENLNFYRSYIEEEVAKGRSEEEVLAELGNPALIARSILDAAGF — lower, -0.153
- HMNENDENLRQQAIDASKEVRRWGEPVTLPPMNAHDRRIIHITLEGESDLQTESTGEGNFKSVVISLK — lower, -0.111
- HMGPVPLASAADMEKFYSHLQQVLDEVDFKDRTGSGHLMARLRRLFQRTVLDQNEINILRGILMAVQGRR — lower, -2.85
- HMLQFTYPRLHTKKSWYVDFMSFDPGAGKMRRKKFMLDGIPKITDRRKRAAELIEVLTKQLRAGWSPWVNV — lower, -3.59
- HMGSVNDNVQKLTSQIGETTETGDTITPEDVELYKKMVDPLSTMAQKLEAAEILKLKGIIGSNGIIV — lower, -0.0442
- HMAPETALQILEQIQINPKVTMTDLANLTGYSRRWVAQTMKQLQELNVIKRVGSTKTGYWEIIA — lower, -0.138
- HMVQIIQLQGTDKRLYELVAPLVMNPEILKQNYNYPFRTSEDFVWFVAVDKKKVIGFIPVEEKKKEYVI — lower, -0.0678
- HMQTEFVISSGEQPKRLDVFLLQREPYLSRAALQRMIAAGWVRVNNHLAKSSQRIKAGDVIVFD — lower, -1.41
- HMQQQLLHIVFGGELKDVTGIEFEDLSKMDFVGAFSNYKDAYDAWKSAAQRTVDHAEMRYFILHAHKLL — lower, -5.48
- HMDYADISYKIFMNHIKNGQVERVELSGDPRIMGKLKDGTYFVTDNPRTENFKEFLLLNNVQVIETN — within 0.2 log units, 0.43
- HMGGNVYAYRLTASVKSGEQIPANKIEKVKMLSSDLPTNYVPDTVNVTAYKSKLDLQAGTILSTSLLYEN — lower, 0.0242
- HMVILPGEKMVVKIVQPGKEKGQGVGYLADGTMIVVDSGDKMIGQDVPTEITRVFQTVAGKMLFAVPVD — lower, -0.426
- HMKLFGTPGSPFARKVRIVLEEKRIPHEYIIERGSAPGSRVPQYNPLGKVPTLVLDDGRGLYDSPVIVEYL — lower, -0.492
- HMITGSIQPKNGKYYAVLNLYDHTGKRRPKWVSTGYTVKGNKKKAQEVLNELTRRYSAQLPPSK — lower, -0.512
- HMIQNTGMMESGDSIRGMALDAGFPLLMVVGYRGWTRKGNTPDSAAVYTEPFLNAFRLNYYLVEHDE — within 0.2 log units, 0.309
- HMKFPIITAKQDSDGKFYWAQTTDKGKTYTFILDGDGKKFPIGGTMPDVKINENGYWSVNGSSTGVLANDL — lower, 0.0311
- HMISVENLSNREFEIFQLIGNGFSTKEMAKKLNLSIYTVESHKKNIKEKLKLKNSSDLSKYAIQWVIMQN — lower, -0.503
- HMSKPTLTLKSNAYPYNLNGERINNYLGFTYIKKGATLNYQGSKRINGQNYYYIGDGAYIKNTTVGSTNN — lower, -1.51
- HMGLNNVSDILRLDFNSFKKKFDKLPSGYKNSVVEQAALMIKSGELDSIKIKDYIEKSMGIELDI — lower, -0.27
- HMKVSDLIGMLGRVTGELAPTGIVLVGNKTWTAISEDASVIASGEQVQVRSVAGLILTVSHQVD — lower, -2.15
- HMAIRLIKASREFNVGISTIVEFLEKKGHAIDSDPNSKIPDELYQLIEKEFQTEGSVKKAAKQI — lower, -0.0914
- HMPVQPMDPSIEHISALTGKQFQAFPGQDHRAHMTAHLNFMSTNIVRNNPAVMGAIQKNILEHISLMAQEQ — within 0.2 log units, 0.153
- HMGAIVTVPDLAGRPQPGAEAELRRSGLVPKVRTSYSLTGTRGTVISQTPPAGSRVREGAEVEVVVSRGLN — within 0.2 log units, 0.0922
- HMRKEPSYASDIITRLKEADLIVVEGTLYPLLTRLKKDGLLSYEWRESTQGPPRKYYALTLDGET — lower, -0.455
- HMYGQEVKVLGLFGDRAFIKVDEKSAVIRIGQSHQNVQLKSISNQKAILLVDNKDIALGLGDSYQSA — lower, -0.244
- HMPTEAIVLQQIQIRQSPSGNSKSLQQILPGAKIKITSESSVKGWKQVSLDGGQKGWIPTAAIGL — lower, -0.0262
- HMRWGDPLTVKVPSFIGQTKDDIAKQHYPFRIEWHGEGAKIGSQLPEVDSVIKQDGTIHLYLV — lower, -0.104
- HMEVAVQFIEFKIPENHAWIGKEIREITFPPESILVLIIRDGKKLVPNGKTVLKEGDSLILSGKASD — lower, -0.538
- HMTGMDALIGRRVFVSEEILPGDAGGRVAVDGDSWRAISVGTAKPIPAGTEVRIHGYKSLILEVEPI — lower, -0.162
- HMTAPELSVGDYLEYRGKEYKVESLDMDGFITLTDTALEDAPRLISRVTFLTDEFIRSGEYMVIT — lower, -0.169
- HMALPPPELRGATGEAVTALRPAGIALIQGKRYDVLAEGGEWIAAGAAVRVRDIRNGHLIVSDA — lower, 0.00767
- HMLKEDSAYELGLRIFDQALNDYGTSFIDLKEDEYKKVLSIYGYSNPRQLIINIGLGNVIPHLLARDITE — lower, -1.23
- HMAGLELVVTREQAGRTVKSLLRGELGISTALMGRLKRTGTGLTVNGTRVFTNAVLREGDRLAVDLDAAE — lower, -0.606
- HMLKFGLSQRELQILALLPTDEPLSILAKSLFISESTLKTHLTHIYRKLGVKNRLQAINVARKAGLLK — lower, -0.283
- HMAAENAVGARVKALREAMDLSLRDLSERSGVSPTMLSQVERGSTSPTLAVAEKIAAGLDLSLSQLLRL — lower, -0.0179
- HMGEILYSGVLKGGDGPEATKLALEKFLGEANTQVAGRIGVQPETQVIWLSREAVDSAASTLSQHKGNMYV — lower, -0.085
- HMPAEEVPLYKAVVVTTPPNRLRVRFSPAGDFKRWLQSGEEVDVYQELGDWRRIEPNGWSSAEWLQRVG — lower, -0.157
- HMEIMELPEYVVRSGSGLDAFREKWDLWDQGLMYDLKDKRAVFPIFIDGVMIDAVGRALAGAEPKWLRYTG — lower, -0.165
- HMLTRQRKQLLEYLSKHTDEQMTARQIADALTAESISISAVYRNLSALEEEGILKRSIRENTREVYYQYIA — lower, -0.973
- HMEYYDDEELDRFRGVEADAYDEDAVNEFRDVLYTLQEIEVAGWLRSLQLRAINLPDELKDEAFLI — lower, -1.64
- HMDIFSSFVAIKNANVRELPTAKSAQVATLSKGSEVTALGKVKGKNWYLVARDGKELGYVFGSLIAEAET — lower, -1.29
- HMELPMGTQLPPERELAQQMQVSRAVVNGGLAELAQQGFLEVRPRQGTFVADYRRKGNLSTLIAIMEY — lower, 0.0153
- HMIRQGTKQALLIEMLQRPEGASITEIVEATSWQAHTARGAISGALKKKLGLPITSEKHPERGTVYKL — lower, -0.685
- HMDEDLQEALRKLNPIQANERKLLLKMLEQHRWNVSSVAKAFDVSRNTLYRRLHKLHIPLSNPSE — lower, -0.417
- HMEAGTVTVTHAAVYIRSGPGVSYPIAGKAAKNDTYTVLQKDGDWFQIRLPQGNTGWIAGWLVETGT — lower, -0.635
- HMGKGVDKIMKMADDYSYGKIAGKTVDVMTAKLFQAAYNKAPQKAKDKVDKMNEKQLYIFMMNLWKRF — lower, -0.777
- HMTNVYSLIGKRGIVVEDIDWQKGTGQVKIDGELWSVKTNEQINISKGTEVEVENIEGVKVFVKPI — within 0.2 log units, 0.09
- HMAEPAEDLLSLEGMDKGLAYQLASNGVVTREDLAELATDDLLEIREMDAEQAAALIMKAREHWFEAEQQ — within 0.2 log units, 0.211
- HMTPQNAAAVLRYLSSGAIKGVGPSTAQRIVEKFGAESLDIIQNKPEELATIRGISLSKALAVSEEYNKQY — lower, -0.202
- HMQIDRLFDIVYTLLRKKSATAAELAERFGVSKRTILRDIETLSVAGIPILTSPGKGGGVSISSSF — lower, -0.881
- HMGTESFGARIRKIREARDWTPAALAEATGQTPEFVARVERDEVAPPVAFLLRLAAALGVDPSTF — lower, -0.123
- HMNTISYTELIKQIDEGNVEKVEMTVGSTSVKVKLQGQEEEKKAIVPNTQAFVELIQEKTLEGNQIDLKQN — lower, -0.0333
- HMPHITDAEWEVMRVVWANHHVTSKEVISILEDKMNWKATTIKTLLGRLVEKGALSTEQDGKKFIYTAR — lower, -1.5
